Assay [1] deals with fibrinogen (species not stated).
Assay [2] shares this target. This is another data set of the same source.
The target is the same in assay [3]. This is another data set of the same source.
Assay [4] addresses human fibrinogen (in citrated whole blood, plasma or platelet-rich plasma) (human) (UniProt P02671).

The substance “anterior gland hementin (Haementeria ghilianii) (enzyme)” displayed a Specific Activity (Units/mg), Stage III material in assay [1] of 1400 Units/mg.

In turn, “posterior gland hementin (Haementeria ghilianii) (enzyme)” yielded a Specific Activity (Units/mg), Stage II material in assay [2] of 11500 Units/mg. In turn, “purified hementin (gland of origin not stated for the experiment) (enzyme)” registered a fibrinogenolysis assay: fibrinogen breakdown products on HPLC (RP300-C8) in assay [3] of 90%. In assay [4], this substance returned a deaggregation of pre-formed ADP-induced platelet aggregates (aggregometer) of 3 min and a loss of coagulability of platelet-rich plasma with thrombin of 10 min.

The values are drawn from patent US5977056.
